We go through 1 molecule from US20220305006A1 (University of California, published 2022).

What all share (assay): cell-based or functional assay
Experiment [1] concerns the target BACE in CHO-7W cells (Chinese hamster ovary cells stably transfected with wildtype human APP).
Experiment [2] concerns the target Recombinant Human Cathepsin D (human, UniProt P07339 65-412).
The target of experiment [3] is BACE1 expressed from a transfected plasmid in 293T cells (NRG1 and PSGL1 assays).

Chain of Recombinant Human Cathepsin D (P07339 65-412): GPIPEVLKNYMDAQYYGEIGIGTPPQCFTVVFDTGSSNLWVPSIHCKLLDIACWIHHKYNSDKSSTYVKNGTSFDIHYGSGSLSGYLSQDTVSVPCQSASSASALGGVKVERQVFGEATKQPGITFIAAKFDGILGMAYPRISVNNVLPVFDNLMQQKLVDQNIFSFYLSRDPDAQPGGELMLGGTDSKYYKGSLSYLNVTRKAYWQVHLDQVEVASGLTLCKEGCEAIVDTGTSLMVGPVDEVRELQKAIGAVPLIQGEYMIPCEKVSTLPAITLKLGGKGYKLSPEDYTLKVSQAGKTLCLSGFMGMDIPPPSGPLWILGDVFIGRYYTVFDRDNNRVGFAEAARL

B1: Peptide 65007 (peptide)
peptide: Ac-ALYPYFLPISAK-NH2
Regarding B1, in experiment [1], the “decrease of BACE cleavage product sAPPβ from CHO-7W cells, EC50” value was ~10 µM. Besides, the “Cat D activity (fluorogenic substrate), IC50” value in experiment [2] is > 5 µM. Further, in experiment [3], the “NRG1 cleavage by BACE in co-transfected 293T cells (secreted alkaline phosphatase), EC50” value was > 10 µM and the “PSGL1 cleavage by BACE in co-transfected 293T cells (secreted alkaline phosphatase), EC50” value is > 10 µM.
